Source: US20160039904A1, “STABILIZED SINGLE HUMAN CD4 DOMAINS AND FUSION PROTEINS” (priority 2013, published 2016)

Experiments:
[1] = target: HIV-1 Env of isolate CNE15 (HIV-1); experiment: cell-based or functional assay
[2] = target: HIV-1 Env of isolate 57128.VRC18 (HIV-1); experiment: cell-based or functional assay
[3] = target: HIV-1 Env of isolate CNE59 (HIV-1); experiment: cell-based or functional assay
[4] = target: HIV-1 Env of isolate CNE9 (HIV-1); experiment: cell-based or functional assay
[5] = target: HIV-1 Env of isolate CNE57 (HIV-1); experiment: cell-based or functional assay
[6] = target: HIV-1 Env of isolate CNE11 (HIV-1); experiment: cell-based or functional assay
[7] = target: HIV-1 Env of isolate CNE68 (HIV-1); experiment: cell-based or functional assay
[8] = target: HIV-1 Env of isolate CNE30 (HIV-1); experiment: cell-based or functional assay
[9] = target: HIV-1 Env of isolate CNE55 (HIV-1); experiment: cell-based or functional assay
[10] = target: HIV-1 Env of isolate CH70 (HIV-1); experiment: cell-based or functional assay
[11] = target: HIV-1 Env of isolate CH64 (HIV-1); experiment: cell-based or functional assay
[12] = target: HIV-1 Env of isolate CH114 (HIV-1); experiment: cell-based or functional assay
[13] = target: HIV-1 Env of isolate CNE64 (HIV-1); experiment: cell-based or functional assay
[14] = target: HIV-1 Env of isolate AE03 (HIV-1); experiment: cell-based or functional assay
[15] = target: HIV-1 Env of isolate CNE58 (HIV-1); experiment: cell-based or functional assay
[16] = target: HIV-1 Env of isolate CNE5 (HIV-1); experiment: cell-based or functional assay
[17] = target: HIV-1 Env of isolate GS-015.EC12 (HIV-1); experiment: cell-based or functional assay
[18] = target: HIV-1 Env of isolate KNH1088.EC5 (HIV-1); experiment: cell-based or functional assay
[19] = target: HIV-1 Env of isolate CH117 (HIV-1); experiment: cell-based or functional assay
[20] = target: HIV-1 Env of isolate CNE6 (HIV-1); experiment: cell-based or functional assay
[21] = target: HIV-1 Env of isolate CH120 (HIV-1); experiment: cell-based or functional assay
[22] = target: HIV-1 Env of isolate CNE1 (HIV-1); experiment: cell-based or functional assay
[23] = target: HIV-1 Env of isolate CNE4 (HIV-1); experiment: cell-based or functional assay
[24] = target: HIV-1 Env of isolate 55815.EC3 (HIV-1); experiment: cell-based or functional assay
[25] = target: HIV-1 Env of isolate N1 1046.e3 PV (HIV-1); experiment: cell-based or functional assay
[26] = target: HIV-1 Env of isolate CH119 (HIV-1); experiment: cell-based or functional assay
[27] = target: HIV-1 Env of isolate CNE53 (HIV-1); experiment: cell-based or functional assay
[28] = target: HIV-1 Env of isolate CNE40 (HIV-1); experiment: cell-based or functional assay
[29] = target: HIV-1 Env of isolate CNE107 (HIV-1); experiment: cell-based or functional assay
[30] = target: HIV-1 Env of isolate CNE49 (HIV-1); experiment: cell-based or functional assay
[31] = target: HIV-1 Env of isolate CH110 (HIV-1); experiment: cell-based or functional assay
[32] = target: HIV-1 Env of isolate CNE65 (HIV-1); experiment: cell-based or functional assay
[33] = target: HIV-1 Env of isolate CNE16 (HIV-1); experiment: cell-based or functional assay
[34] = target: HIV-1 Env of isolate CNE3 (HIV-1); experiment: cell-based or functional assay
[35] = target: HIV-1 Env of isolate PBL286.VRC36aPV (HIV-1); experiment: cell-based or functional assay
[36] = target: HIV-1 Env of isolate CAM0015BBY.EC3 (HIV-1); experiment: cell-based or functional assay
[37] = target: HIV-1 Env of isolate CNE7 (HIV-1); experiment: cell-based or functional assay
[38] = target: HIV-1 Env of isolate CNE66 (HIV-1); experiment: cell-based or functional assay
[39] = target: HIV-1 Env of isolate CH91 (HIV-1); experiment: cell-based or functional assay
[40] = target: HIV-1 Env of isolate CM240.EC1 (HIV-1); experiment: cell-based or functional assay
[41] = target: HIV-1 Env of isolate KNH1144.EC1 (HIV-1); experiment: cell-based or functional assay
[42] = target: gp140Con-s (HIV-1); experiment: ELISA (OD 450 nm) on Cons gp140 (gp140Con-s), sCD4Fc titrated [A]

“D1D2Fc (from UniProt P01730 26-203) (Fc fusion)” was tested, and the neutralization IC50 [1] was 106 nM, the neutralization IC90 [1] was over 250 nM and the IC90, neutralization in TZM-bl cell-based assay [2] was 41 nM. It also gave a neutralization IC50 [3] of 10 nM, a neutralization IC90 [3] of 220 nM and a neutralization IC50 [4] of 9.9 nM. The neutralization IC90 [4] was 63 nM, the neutralization IC50 [5] was 250 nM and the neutralization IC90 [5] was over 250 nM. The neutralization IC50 [6] was over 250 nM, the neutralization IC90 [6] was over 250 nM and the neutralization IC50 [7] was 9.7 nM. The neutralization IC90 [7] was 133 nM, the neutralization IC50 [8] was 17 nM and the neutralization IC90 [8] was 211 nM. It also gave a neutralization IC50 [9] of 213 nM, a neutralization IC90 [9] of over 250 nM and a neutralization IC50 [10] of 7.3 nM. It also gave a neutralization IC90 [10] of 109 nM, a neutralization IC50 [11] of 48 nM and a neutralization IC90 [11] of over 250 nM. For the same substance, the neutralization IC50 [12] was 23 nM, the neutralization IC90 [12] was 198 nM and the neutralization IC50 [13] was 12 nM. It also gave a neutralization IC90 [13] of 113 nM, a neutralization IC50 [14] of over 250 nM and a neutralization IC90 [14] of over 250 nM. It also gave a neutralization IC50 [15] of over 250 nM, a neutralization IC90 [15] of over 250 nM and a neutralization IC50 [16] of 94 nM. The neutralization IC90 [16] was 236 nM, the IC50, neutralization in TZM-bl cell-based assay [17] was 0.2 nM and the IC50, neutralization in TZM-bl cell-based assay [18] was over 250 nM. The IC90, neutralization in TZM-bl cell-based assay [18] was over 250 nM, the neutralization IC50 [19] was 27 nM and the neutralization IC90 [19] was over 250 nM. For the same substance, the neutralization IC50 [20] was 68 nM, the neutralization IC90 [20] was 192 nM and the neutralization IC50 [21] was 104 nM. For the same substance, the neutralization IC90 [21] was over 250 nM, the neutralization IC50 [22] was 197 nM and the neutralization IC90 [22] was over 250 nM. It also gave a neutralization IC50 [23] of 3.9 nM, a neutralization IC90 [23] of 24 nM and an IC50, neutralization in TZM-bl cell-based assay [24] of 6.2 nM. For the same substance, the IC90, neutralization in TZM-bl cell-based assay [24] was 116 nM, the IC50, neutralization in TZM-bl cell-based assay [25] was 183 nM and the IC90, neutralization in TZM-bl cell-based assay [25] was over 250 nM. The neutralization IC50 [26] was 85 nM, the neutralization IC90 [26] was over 250 nM and the neutralization IC50 [27] was 14 nM. It also gave a neutralization IC90 [27] of over 250 nM, a neutralization IC50 [28] of 0.06 nM and a neutralization IC90 [28] of 0.5 nM. For the same substance, the neutralization IC50 [29] was 135 nM, the neutralization IC90 [29] was over 250 nM and the neutralization IC50 [30] was 21 nM. For the same substance, the neutralization IC90 [30] was 224 nM, the neutralization IC50 [31] was 28 nM and the neutralization IC90 [31] was over 250 nM. For the same substance, the neutralization IC50 [32] was 15 nM, the neutralization IC90 [32] was 115 nM and the neutralization IC50 [33] was 11 nM. It also gave a neutralization IC90 [33] of 229 nM, a neutralization IC50 [34] of over 250 nM and a neutralization IC90 [34] of over 250 nM. The IC50, neutralization in TZM-bl cell-based assay [35] was 87 nM, the IC90, neutralization in TZM-bl cell-based assay [35] was over 250 nM and the IC50, neutralization in TZM-bl cell-based assay [36] was 41 nM. It also gave an IC90, neutralization in TZM-bl cell-based assay [36] of over 250 nM, a neutralization IC50 [37] of 19 nM and a neutralization IC90 [37] of 161 nM. The neutralization IC50 [38] was 159 nM, the neutralization IC90 [38] was over 250 nM and the neutralization IC50 [39] was 35 nM. The neutralization IC90 [39] was over 250 nM, the IC50, neutralization in TZM-bl cell-based assay [40] was 20 nM and the IC90, neutralization in TZM-bl cell-based assay [40] was over 250 nM. For the same substance, the IC50, neutralization in TZM-bl cell-based assay [41] was 4.8 nM and the EC50 (read off the curve) [42] was 1 nM.
